Experimental data published in publication PMC3985815.

Assays:
Assay in all cases: purified protein
[1] = substrate: Nc1ncnc2c1ncn2[C@@H]1O[C@H](COP(=O)(O)O)[C@@H](OP(=O)(O)O)[C@H]1O; settings: 25 mM HEPES, 250 mM KCl, pH 7.5, 30 °C
[2] = substrate: O=c1ccn([C@H]2C[C@H](OP(=O)(O)O)[C@@H](COP(=O)(O)O)O2)c(=O)[nH]1; settings: 25 mM HEPES, 250 mM KCl, pH 7.5, 30 °C
[3] = substrate: Nc1nc2c(ncn2[C@H]2C[C@H](OP(=O)(O)O)[C@@H](COP(=O)(O)O)O2)c(=O)[nH]1; settings: 25 mM HEPES, 250 mM KCl, pH 7.5, 30 °C
[4] = substrate: O=c1[nH]cnc2c1ncn2[C@H]1C[C@H](OP(=O)(O)O)[C@@H](COP(=O)(O)O)O1; settings: 25 mM HEPES, 250 mM KCl, pH 7.5, 30 °C
[5] = substrate: CNc1ncnc2c1ncn2[C@@H]1O[C@H](COP(=O)(O)O)[C@@H](OP(=O)(O)O)[C@H]1O; settings: 25 mM HEPES, 250 mM KCl, pH 7.5, 30 °C
[6] = substrate: Cc1cn([C@H]2C[C@H](OP(=O)(O)O)[C@@H](COP(=O)(O)O)O2)c(=O)[nH]c1=O; settings: 25 mM HEPES, 250 mM KCl, pH 7.5, 30 °C
[7] = substrate: Nc1ncnc2c1ncn2[C@H]1C[C@H](OP(=O)(O)O)[C@@H](COP(=O)(O)O)O1; settings: 25 mM HEPES, 250 mM KCl, pH 7.5, 30 °C
[8] = substrate: Nc1ncnc2c1ncn2[C@@H]1O[C@H](COP(=O)(O)O[C@H]2[C@@H](O)[C@H](n3cnc4c(N)ncnc43)O[C@@H]2COP(=O)(O)O)[C@@H](O)[C@H]1O; settings: 50 mM HEPES, 250 mM KCl, 5.0 mM MgCl2, pH 7.5
[9] = substrate: Nc1ccn([C@H]2C[C@H](OP(=O)(O)O)[C@@H](COP(=O)(O)O)O2)c(=O)n1; settings: 25 mM HEPES, 250 mM KCl, pH 7.5, 30 °C

B1: Cv1693 (Chromobacterium violaceum ATCC 12472) (protein)
chain: MANIDLHFHSRTSDGALTPTEVIDRAAARAPALLALTDHDCTGGLAEAAAAAARRGIPFLNGVEVSVSWGRHTVHIVGLGIDPAEPALAAGLKSIREGRLERARQMGASLEAAGIAGCFDGAMRWCDNPEMISRTHFARHLVDSGAVKDMRTVFRKYLTPGKPGYVSHQWASLEDAVGWIVGAGGMAVIAHPGRYDMGRTLIERLILDFQAAGGQGIEVASGSHSLDDMHKFALHADRHGLYASSGSDFHAPGEGGRDVGHTEDLPPICRPIWRELEARILRPAD
For B1, the Km [1] was 15.5 ± 2.4 µM, the kcat [1] was 22 ± 1 s⁻¹ and the kcat/Km [1] was 1.4e+06 ± 200000 M⁻¹ s⁻¹. It also gave a Km [2] of 29 ± 4 µM, a kcat [2] of 5.2 ± 0.2 s⁻¹ and a kcat/Km [2] of 180000 ± 20000 M⁻¹ s⁻¹. It also gave a Km [3] of 5.2 ± 0.4 µM, a kcat [3] of 4.2 ± 0.1 s⁻¹ and a kcat/Km [3] of 790000 ± 60000 M⁻¹ s⁻¹. The Km [4] was 22 ± 3 µM, the kcat [4] was 4.3 ± 0.2 s⁻¹ and the kcat/Km [4] was 190000 ± 30000 M⁻¹ s⁻¹. It also gave a Km [5] of 5.4 ± 1.0 µM, a kcat [5] of 11.6 ± 0.4 s⁻¹ and a kcat/Km [5] of 2.1e+06 ± 400000 M⁻¹ s⁻¹. The Km [6] was 9.3 ± 1.0 µM, the kcat [6] was 3.3 ± 0.1 s⁻¹ and the kcat/Km [6] was 360000 ± 40000 M⁻¹ s⁻¹. It also gave a Km [7] of 10.2 ± 0.9 µM, a kcat [7] of 7.1 ± 0.2 s⁻¹ and a kcat/Km [7] of 700000 ± 60000 M⁻¹ s⁻¹. For the same protein, the Km [8] was 1.6 ± 0.2 µM, the kcat [8] was 0.05 ± 0.01 s⁻¹ and the kcat/Km [8] was 32000 ± 3000 M⁻¹ s⁻¹. It also gave a Km [9] of 26 ± 3 µM, a kcat [9] of 9.4 ± 0.3 s⁻¹ and a kcat/Km [9] of 360000 ± 50000 M⁻¹ s⁻¹.
